Experimental data taken from publication PMC7367873, “Dissecting the sequence determinants for dephosphorylation by the catalytic subunits of phosphatases PP1 and PP2A” (Nature Communications, 2020).

Columns and labels:
GFP-14-3-3β = GFP-14-3-3β co-IP with LC-MS/MS, untreated GFP-14-3-3β versus GFP control (14-3-3 interactome); type: binding, human; conditions: untreated vs GFP; label-free quantification
[1] = test system: GFP-14-3-3β and its binding proteins; assay: GFP-14-3-3β co-IP with LC-MS/MS label-free quantification, untreated versus PP1c-treated; set-up: species or system human; conditions: PP1 vs untreated; label-free quantification

| Molecule | Difference (log2), PP1 vs untreated [1] | Difference (log2), untreated vs GFP (GFP-14-3-3β) |
| --- | --- | --- |
| SRPR (protein, UniProt P08240 1-638, looked up) Signal recognition particle …: MLDFFTIFSKGGLVLWCFQGVSDSCTGPVNALIRSVLLQERGGNNSFTHEALTLKYKLDNQFELVFVVGFQKILTLTYVDKLIDDVHRLFRDKYRTEIQQQSALSLLNGTFDFQNDFLRLLREAEESSKIRAPTTMKKFEDSEKAKKPVRSMIETRGEKPKEKAKNSKKKGAKKEGSDGPLATSKPVPAEKSGLPVGPENGVELSKEELIRRKREEFIQKHGRGMEKSNKSTKSDAPKEKGKKAPRVWELGGCANKEVLDYSTPTTNGTPEAALSEDINLIRGTGSGGQLQDLDCSSSDDEGAAQNSTKPSATKGTLGGMFGMLKGLVGSKSLSREDMESVLDKMRDHLIAKNVAADIAVQLCESVANKLEGKVMGTFSTVTSTVKQALQESLVQILQPQRRVDMLRDIMDAQRRQRPYVVTFCGVNGVGKSTNLAKISFWLLENGFSVLIAACDTFRAGAVEQLRTHTRRLSALHPPEKHGGRTMVQLFEKGYGKDAAGIAMEAIAFARNQGFDVVLVDTAGRMQDNAPLMTALAKLITVNTPDLVLFVGEALVGNEAVDQLVKFNRALADHSMAQTPRLIDGIVLTKFDTIDDKVGAAISMTYITSKPIVFVGTGQTYCDLRSLNAKAVVAALMKA | 0.9083 log2 | -0.7055 log2 |
| TMCO1 (protein, UniProt Q9UM00 1-239, looked up) Calcium load-activated …: MPRKRKCDLRAVRVGLLLGGGGVYGSRFRFTFPGCRALSPWRVRVQRRRCEMSTMFADTLLIVFISVCTALLAEGITWVLVYRTDKYKRLKAEVEKQSKKLEKKKETITESAGRQQKKKIERQEEKLKNNNRDLSMVRMKSMFAIGFCFTALMGMFNSIFDGRVVAKLPFTPLSYIQGLSHRNLLGDDTTDCSFIFLYILCTMSIRQNIQKILGLAPSRAATKQAGGFLGPPPPSGKFS | 0.8935 log2 | 2.261 log2 |

Second part, led by results:

| Difference (log2), PP1 vs untreated [1] | Molecule | Difference (log2), untreated vs GFP (GFP-14-3-3β) |
| --- | --- | --- |
| 0.914 log2 | DPM1 (protein, UniProt O60762 2-260, looked up) Dolichol-phosphate …: ASLEVSRSPRRSRRELEVRSPRQNKYSVLLPTYNERENLPLIVWLLVKSFSESGINYEIIIIDDGSPDGTRDVAEQLEKIYGSDRILLRPREKKLGLGTAYIHGMKHATGNYIIIMDADLSHHPKFIPEFIRKQKEGNFDIVSGTRYKGNGGVYGWDLKRKIISRGANFLTQILLRPGASDLTGSFRLYRKEVLEKLIEKCVSKGYVFQMEMIVRARQLNYTIGEVPISFVDRVYGESKLGGNEIVSFLKGLLTLFATT | 1.004 log2 |
| 0.9262 log2 | VDAC2 (protein, UniProt P45880 2-294, looked up) Non-selective voltage-gated …: ATHGQTCARPMCIPPSYADLGKAARDIFNKGFGFGLVKLDVKTKSCSGVEFSTSGSSNTDTGKVTGTLETKYKWCEYGLTFTEKWNTDNTLGTEIAIEDQICQGLKLTFDTTFSPNTGKKSGKIKSSYKRECINLGCDVDFDFAGPAIHGSAVFGYEGWLAGYQMTFDSAKSKLTRNNFAVGYRTGDFQLHTNVNDGTEFGGSIYQKVCEDLDTSVNLAWTSGTNCTRFGIAAKYQLDPTASISAKVNNSSLIGVGYTQTLRPGVKLTLSALVDGKSINAGGHKVGLALELEA | 2.092 log2 |
